The Immune Epitope Database (IEDB)

Legend:
Test in all cases: IEDB peptide-MHC binding, purified MHC/competitive/radioactivity; filed as Kd, often an IC50 or EC50 that approximates it; ≥ and ≤ were set here for values at or beyond the usual limits of such assays
[1] = molecular target: HLA-A*33:01
[2] = molecular target: HLA-A*11:01
[3] = molecular target: HLA-A*03:01
[4] = molecular target: HLA-A*68:01
[5] = molecular target: HLA-A*31:01
[6] = source organism: Vaccinia virus WR
[7] = source organism: Dengue virus 4 Philippines/H241/1956
[8] = source organism: Triticum aestivum
[9] = source organism: SARS coronavirus Tor2
[10] = source organism: Dengue virus 3 Martinique/1243/1999
[11] = source organism: Lymphocytic choriomeningitis virus (strain Armstrong)
[12] = source organism: Mammarenavirus machupoense
[13] = source organism: Dengue virus 4 Dominica/814669/1981
[14] = source organism: Dengue virus 2 Jamaica/1409/1983
[15] = source organism: Mammarenavirus whitewaterense

Sequence	Kd [1, 6]	Kd [2, 6]	Kd [3, 6]	Kd [4, 6]	Kd [5, 6]	also measured
LLSIVVDINK	10500 nM	35.9 nM	485 nM	110 nM	1090 nM	
ECLRRRVTR						Kd [1, 7]: 244 nM
IIKLPTLFGR	17.3 nM	137 nM	89.2 nM	69.6 nM	0.251 nM	
KIMSIGFEAR	562 nM	36.2 nM	175 nM	88.1 nM	6.06 nM	
AIILHQQQK						Kd [1, 8]: ≥ 77700 nM; Kd [2, 8]: 38.2 nM; Kd [3, 8]: 104 nM; Kd [4, 8]: 941 nM; Kd [5, 8]: ≥ 20600 nM
ILSKWHTSAR	399 nM	3550 nM	36.3 nM	844 nM	126 nM	
SLLRSTSQK						Kd [1, 9]: 14700 nM; Kd [2, 9]: 12.8 nM; Kd [3, 9]: 2.56 nM; Kd [4, 9]: 3040 nM; Kd [5, 9]: 802 nM
FADNDRQDIY	≥ 70000 nM	≥ 46000 nM	≥ 70100 nM	1250 nM	≥ 70000 nM	
KFNDYRKQMY	≥ 59300 nM	≥ 22400 nM	4820 nM	≥ 32400 nM	196 nM	
SITPNNLNK	≥ 77700 nM	25.4 nM	866 nM	1450 nM	≥ 77900 nM	
TLISSDGAR	198 nM	1400 nM	4090 nM	5.13 nM	80.3 nM	
RVMANNVKK	≥ 77700 nM	16.7 nM	17.2 nM	104 nM	139 nM	
MLIFNVKSK	≥ 45800 nM	491 nM	228 nM	0.841 nM	≥ 21100 nM	
EECLRRRVTR						Kd [1, 7]: 779 nM
PISASDMQK	7290 nM	163 nM	3230 nM	8850 nM	282 nM	
MILMKMKKK						Kd [3, 7]: 86.3 nM
SILASSLLR						Kd [2, 10]: 125 nM; Kd [3, 10]: 722 nM
FFAYVMNIER	15 nM	10800 nM	1120 nM	3.22 nM	104 nM	
FTTNIWMKFR						Kd [1, 7]: 29.5 nM; Kd [4, 7]: 1.73 nM; Kd [5, 7]: 1.57 nM
DKYGWLCKMH						Kd [1, 11]: ≥ 70000 nM; Kd [2, 11]: ≥ 69700 nM; Kd [3, 11]: ≥ 70000 nM; Kd [4, 11]: ≥ 70100 nM; Kd [5, 11]: ≥ 59200 nM
RMLFTSTNDK	15100 nM	1.54 nM	3.92 nM	35.6 nM	112 nM	

Sequence	Kd [1, 6]	Kd [2, 6]	Kd [3, 6]	Kd [4, 6]	Kd [5, 6]	also measured
GVVFLHVTY						Kd [1, 9]: ≥ 77700 nM; Kd [2, 9]: 3400 nM; Kd [3, 9]: 8170 nM; Kd [4, 9]: ≥ 60600 nM; Kd [5, 9]: 15300 nM
FLSGRGLGK						Kd ([3]; source organism: Dengue virus 1 Nauru/West Pac/1974): 91 nM
KSLNRQTVSR	1320 nM	187 nM	87.2 nM	7000 nM	7.78 nM	
SSYIDFENTK	392 nM	0.158 nM	629 nM	23.5 nM	137 nM	
GVTATITPR						Kd [5, 7]: 14.9 nM
YVNHTLTGQH						Kd [1, 12]: 29.5 nM; Kd [2, 12]: ≥ 69700 nM; Kd [3, 12]: ≥ 70000 nM; Kd [4, 12]: ≥ 70100 nM; Kd [5, 12]: ≥ 70000 nM
ALAPPVNDLK						Kd [3, 7]: 48.1 nM
FSGKEPISDY	≥ 70000 nM	≥ 52400 nM	≥ 70100 nM	≥ 67000 nM	≥ 70000 nM	
NSALTLHWFR						Kd [1, 13]: 4.07 nM; Kd [4, 13]: 1.75 nM; Kd [5, 13]: 3.53 nM
TSEKYSKGY	≥ 77700 nM	≥ 77900 nM	≥ 78000 nM	≥ 77700 nM	≥ 77900 nM	
IGQMFETTMR						Kd [1, 14]: 1630 nM
FWKLVDRER						Kd [1, 10]: 44.6 nM
KSFNHVLKRK						Kd [1, 9]: ≥ 70000 nM; Kd [2, 9]: 6.18 nM; Kd [3, 9]: 1.01 nM; Kd [4, 9]: 1570 nM; Kd [5, 9]: 67.9 nM
NSEYIESKAK	≥ 30600 nM	1960 nM	5890 nM	4190 nM	≥ 34200 nM	
KSTQSVLCVK	11400 nM	0.497 nM	60.7 nM	26.5 nM	90 nM	
RCHDHYLCR						Kd [1, 11]: ≥ 35600 nM; Kd [2, 11]: ≥ 25700 nM; Kd [3, 11]: ≥ 22300 nM; Kd [4, 11]: ≥ 10000 nM; Kd [5, 11]: 907 nM
KLGEFGKAK						Kd [3, 14]: 22.1 nM
HILHAYCGIK	≥ 70000 nM	1390 nM	229 nM	2740 nM	13500 nM	
RSCSYKIGHH						Kd [1, 15]: ≥ 70000 nM; Kd [2, 15]: 17200 nM; Kd [3, 15]: 3900 nM; Kd [4, 15]: ≥ 50900 nM; Kd [5, 15]: 294 nM
RQDLLVTFK						Kd ([2]; source organism: Dengue virus 1 Brazil/97-11/1997): 197 nM
RVAVNKSNK	≥ 52000 nM	11.5 nM	6.83 nM	147 nM	57.7 nM	
